According to patent US20140087995A1 (published 2014):
Numbered stars: 1 amine (or outer) side, 2 acyl side, 3 side chain; on linkers, the order of the positions; unused ones are H or OH. Bridge positions count the residues as written; N and C are the ends. Side chains are listed from the residue outwards. Ends that are not written are not given here. * marks the point of attachment. C20 diacid = O=C(O)CCCCCCCCCCCCCCCCCCC(=O)*; γGlu = O=C(O)[C@H](CCC(=O)[*:2])N[*:1]

T1: human calcitonin receptor (human, UniProt P30988 25-474)
T1 construct: whole, on cells; Membranes of BHK cells stably transfected with the human calcitonin receptor (Assay VII); also called hCTR; hCT
T1 sequence (looked up): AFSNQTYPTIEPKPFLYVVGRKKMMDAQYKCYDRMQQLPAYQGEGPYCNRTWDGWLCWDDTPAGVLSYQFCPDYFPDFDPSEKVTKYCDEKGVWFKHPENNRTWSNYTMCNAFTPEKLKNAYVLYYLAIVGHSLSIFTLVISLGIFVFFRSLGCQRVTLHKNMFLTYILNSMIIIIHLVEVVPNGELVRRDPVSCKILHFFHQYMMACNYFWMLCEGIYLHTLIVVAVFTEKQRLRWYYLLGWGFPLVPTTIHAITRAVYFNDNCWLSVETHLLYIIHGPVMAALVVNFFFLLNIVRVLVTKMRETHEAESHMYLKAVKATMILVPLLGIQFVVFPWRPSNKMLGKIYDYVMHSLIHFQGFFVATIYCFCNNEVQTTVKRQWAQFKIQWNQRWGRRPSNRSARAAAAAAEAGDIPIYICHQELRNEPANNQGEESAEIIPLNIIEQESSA

B1: N^ε1-[(4S)-4-carboxy-4-(19-carboxynonadecanoylamino)butanoyl]-[His14,Arg17,Pro21,Pro27,Pro34,Pro37]-h-amylin (peptide)
peptide: K([γGlu-C20 diacid])CNTATCATQRLAHFLRHSSPNFGAIPSSTNVGPNTP-NH2
modifications: disulfide 2-7; N-terminus assumed
SMILES: CC[C@H](C)[C@H](NC(=O)[C@H](C)NC(=O)CNC(=O)[C@H](Cc1ccccc1)NC(=O)[C@H](CC(N)=O)NC(=O)[C@@H]1CCCN1C(=O)[C@H](CO)NC(=O)[C@H](CO)NC(=O)[C@H](Cc1c[nH]cn1)NC(=O)[C@H](CCCNC(=N)N)NC(=O)[C@H](CC(C)C)NC(=O)[C@H](Cc1ccccc1)NC(=O)[C@H](Cc1c[nH]cn1)NC(=O)[C@H](C)NC(=O)[C@H](CC(C)C)NC(=O)[C@H](CCCNC(=N)N)NC(=O)[C@H](CCC(N)=O)NC(=O)[C@@H](NC(=O)[C@H](C)NC(=O)[C@@H]1CSSC[C@H](NC(=O)[C@@H](N)CCCCNC(=O)CC[C@H](NC(=O)CCCCCCCCCCCCCCCCCCC(=O)O)C(=O)O)C(=O)N[C@@H](CC(N)=O)C(=O)N[C@@H]([C@@H](C)O)C(=O)N[C@@H](C)C(=O)N[C@@H]([C@@H](C)O)C(=O)N1)[C@@H](C)O)C(=O)N1CCC[C@H]1C(=O)N[C@@H](CO)C(=O)N[C@@H](CO)C(=O)N[C@H](C(=O)N[C@@H](CC(N)=O)C(=O)N[C@H](C(=O)NCC(=O)N1CCC[C@H]1C(=O)N[C@@H](CC(N)=O)C(=O)N[C@H](C(=O)N1CCC[C@H]1C(N)=O)[C@@H](C)O)C(C)C)[C@@H](C)O
B2: N^ε1-[(4S)-4-carboxy-4-[[(4S)-4-carboxy-4-(19-carboxynonadecanoylamino)butanoyl]amino]butanoyl]-[Glu14,Arg17,Pro21,Pro27,Pro34,Arg35]-h-amylin (peptide)
peptide: K([γGlu-γGlu-C20 diacid])CNTATCATQRLAEFLRHSSPNFGAIPSSTNVGPRTY-NH2
modifications: disulfide 2-7; N-terminus assumed
SMILES: CC[C@H](C)[C@H](NC(=O)[C@H](C)NC(=O)CNC(=O)[C@H](Cc1ccccc1)NC(=O)[C@H](CC(N)=O)NC(=O)[C@@H]1CCCN1C(=O)[C@H](CO)NC(=O)[C@H](CO)NC(=O)[C@H](Cc1c[nH]cn1)NC(=O)[C@H](CCCNC(=N)N)NC(=O)[C@H](CC(C)C)NC(=O)[C@H](Cc1ccccc1)NC(=O)[C@H](CCC(=O)O)NC(=O)[C@H](C)NC(=O)[C@H](CC(C)C)NC(=O)[C@H](CCCNC(=N)N)NC(=O)[C@H](CCC(N)=O)NC(=O)[C@@H](NC(=O)[C@H](C)NC(=O)[C@@H]1CSSC[C@H](NC(=O)[C@@H](N)CCCCNC(=O)CC[C@H](NC(=O)CC[C@H](NC(=O)CCCCCCCCCCCCCCCCCCC(=O)O)C(=O)O)C(=O)O)C(=O)N[C@@H](CC(N)=O)C(=O)N[C@@H]([C@@H](C)O)C(=O)N[C@@H](C)C(=O)N[C@@H]([C@@H](C)O)C(=O)N1)[C@@H](C)O)C(=O)N1CCC[C@H]1C(=O)N[C@@H](CO)C(=O)N[C@@H](CO)C(=O)N[C@H](C(=O)N[C@@H](CC(N)=O)C(=O)N[C@H](C(=O)NCC(=O)N1CCC[C@H]1C(=O)N[C@@H](CCCNC(=N)N)C(=O)N[C@H](C(=O)N[C@@H](Cc1ccc(O)cc1)C(N)=O)[C@@H](C)O)C(C)C)[C@@H](C)O
notes: also called compound 110
B3: N^ε1-[(4S)-4-carboxy-4-[[(4S)-4-carboxy-4-(19-carboxynonadecanoylamino)butanoyl]amino]butanoyl]-[Glu14,Arg17,Pro21,Pro27,Arg34,Glu35]-h-amylin (peptide)
peptide: K([γGlu-γGlu-C20 diacid])CNTATCATQRLAEFLRHSSPNFGAIPSSTNVGRETY-NH2
modifications: disulfide 2-7; N-terminus assumed
SMILES: CC[C@H](C)[C@H](NC(=O)[C@H](C)NC(=O)CNC(=O)[C@H](Cc1ccccc1)NC(=O)[C@H](CC(N)=O)NC(=O)[C@@H]1CCCN1C(=O)[C@H](CO)NC(=O)[C@H](CO)NC(=O)[C@H](Cc1c[nH]cn1)NC(=O)[C@H](CCCNC(=N)N)NC(=O)[C@H](CC(C)C)NC(=O)[C@H](Cc1ccccc1)NC(=O)[C@H](CCC(=O)O)NC(=O)[C@H](C)NC(=O)[C@H](CC(C)C)NC(=O)[C@H](CCCNC(=N)N)NC(=O)[C@H](CCC(N)=O)NC(=O)[C@@H](NC(=O)[C@H](C)NC(=O)[C@@H]1CSSC[C@H](NC(=O)[C@@H](N)CCCCNC(=O)CC[C@H](NC(=O)CC[C@H](NC(=O)CCCCCCCCCCCCCCCCCCC(=O)O)C(=O)O)C(=O)O)C(=O)N[C@@H](CC(N)=O)C(=O)N[C@@H]([C@@H](C)O)C(=O)N[C@@H](C)C(=O)N[C@@H]([C@@H](C)O)C(=O)N1)[C@@H](C)O)C(=O)N1CCC[C@H]1C(=O)N[C@@H](CO)C(=O)N[C@@H](CO)C(=O)N[C@H](C(=O)N[C@@H](CC(N)=O)C(=O)N[C@H](C(=O)NCC(=O)N[C@@H](CCCNC(=N)N)C(=O)N[C@@H](CCC(=O)O)C(=O)N[C@H](C(=O)N[C@@H](Cc1ccc(O)cc1)C(N)=O)[C@@H](C)O)C(C)C)[C@@H](C)O
B4: N^ε1-[(4S)-4-carboxy-4-[[(4S)-4-carboxy-4-(19-carboxynonadecanoylamino)butanoyl]amino]butanoyl]-[Glu14,Arg17,Pro21,Pro27,His34,Glu35]-h-amylin (peptide)
peptide: K([γGlu-γGlu-C20 diacid])CNTATCATQRLAEFLRHSSPNFGAIPSSTNVGHETY-NH2
modifications: disulfide 2-7; N-terminus assumed
SMILES: CC[C@H](C)[C@H](NC(=O)[C@H](C)NC(=O)CNC(=O)[C@H](Cc1ccccc1)NC(=O)[C@H](CC(N)=O)NC(=O)[C@@H]1CCCN1C(=O)[C@H](CO)NC(=O)[C@H](CO)NC(=O)[C@H](Cc1c[nH]cn1)NC(=O)[C@H](CCCNC(=N)N)NC(=O)[C@H](CC(C)C)NC(=O)[C@H](Cc1ccccc1)NC(=O)[C@H](CCC(=O)O)NC(=O)[C@H](C)NC(=O)[C@H](CC(C)C)NC(=O)[C@H](CCCNC(=N)N)NC(=O)[C@H](CCC(N)=O)NC(=O)[C@@H](NC(=O)[C@H](C)NC(=O)[C@@H]1CSSC[C@H](NC(=O)[C@@H](N)CCCCNC(=O)CC[C@H](NC(=O)CC[C@H](NC(=O)CCCCCCCCCCCCCCCCCCC(=O)O)C(=O)O)C(=O)O)C(=O)N[C@@H](CC(N)=O)C(=O)N[C@@H]([C@@H](C)O)C(=O)N[C@@H](C)C(=O)N[C@@H]([C@@H](C)O)C(=O)N1)[C@@H](C)O)C(=O)N1CCC[C@H]1C(=O)N[C@@H](CO)C(=O)N[C@@H](CO)C(=O)N[C@H](C(=O)N[C@@H](CC(N)=O)C(=O)N[C@H](C(=O)NCC(=O)N[C@@H](Cc1c[nH]cn1)C(=O)N[C@@H](CCC(=O)O)C(=O)N[C@H](C(=O)N[C@@H](Cc1ccc(O)cc1)C(N)=O)[C@@H](C)O)C(C)C)[C@@H](C)O
B5: N^ε1-[(4S)-4-carboxy-4-[[(4S)-4-carboxy-4-(19-carboxynonadecanoylamino)butanoyl]amino]butanoyl]-[Arg17,Pro21,Pro27,Pro31,Pro34,Arg35]-h-amylin (peptide)
peptide: K([γGlu-γGlu-C20 diacid])CNTATCATQRLANFLRHSSPNFGAIPSSTPVGPRTY-NH2
modifications: disulfide 2-7; N-terminus assumed
SMILES: CC[C@H](C)[C@H](NC(=O)[C@H](C)NC(=O)CNC(=O)[C@H](Cc1ccccc1)NC(=O)[C@H](CC(N)=O)NC(=O)[C@@H]1CCCN1C(=O)[C@H](CO)NC(=O)[C@H](CO)NC(=O)[C@H](Cc1c[nH]cn1)NC(=O)[C@H](CCCNC(=N)N)NC(=O)[C@H](CC(C)C)NC(=O)[C@H](Cc1ccccc1)NC(=O)[C@H](CC(N)=O)NC(=O)[C@H](C)NC(=O)[C@H](CC(C)C)NC(=O)[C@H](CCCNC(=N)N)NC(=O)[C@H](CCC(N)=O)NC(=O)[C@@H](NC(=O)[C@H](C)NC(=O)[C@@H]1CSSC[C@H](NC(=O)[C@@H](N)CCCCNC(=O)CC[C@H](NC(=O)CC[C@H](NC(=O)CCCCCCCCCCCCCCCCCCC(=O)O)C(=O)O)C(=O)O)C(=O)N[C@@H](CC(N)=O)C(=O)N[C@@H]([C@@H](C)O)C(=O)N[C@@H](C)C(=O)N[C@@H]([C@@H](C)O)C(=O)N1)[C@@H](C)O)C(=O)N1CCC[C@H]1C(=O)N[C@@H](CO)C(=O)N[C@@H](CO)C(=O)N[C@H](C(=O)N1CCC[C@H]1C(=O)N[C@H](C(=O)NCC(=O)N1CCC[C@H]1C(=O)N[C@@H](CCCNC(=N)N)C(=O)N[C@H](C(=O)N[C@@H](Cc1ccc(O)cc1)C(N)=O)[C@@H](C)O)C(C)C)[C@@H](C)O

The binders below were run against T1, human calcitonin receptor (assay: SPA competition against 125I-calcitonin, membranes of BHK cells with human calcitonin receptor (Assay VII)).
In short: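 BHK hCTR membranes 35 ng/μL + SPA beads 0.05 mg/well; buffer 50 mM Hepes pH 7.4, 1 mM CaCl2, 5 mM MgCl₂, 0.1% OA, 0.02% Tween20. 120 min, 25° C., shaking. Scintillation count; IC50 by one-site binding competition.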
An IC50 of 0.157 nM was found for B1 in this work. An IC50 of 127 nM was found for K([γGlu-γGlu-C20 diacid])CNTATCATQRLADFLRHSSPNFGAIPSSTNVGPRTY-NH2 (disulfide 2-7, also called compound 130) in this work. An IC50 of 17.5 nM was found for B2 in this work. An IC50 of 14.1 nM was found for B3 in this work. An IC50 of 15.2 nM was found for B4 in this work. An IC50 of 42.8 nM was found for B5 in this work. An IC50 of 8.56 nM was found for K([γGlu-γGlu-C20 diacid])CNTATCATQRLADFLRHSSPNFGAIPSSTNVGPETY-NH2 (disulfide 2-7) in this work.

What follows are binders tested against T1, human calcitonin receptor (assay: ratio of IC50 at hCTR over IC50 at hAmylin-R (SPA competition assays)).
In short: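 Competition binding by SPA uses membrane preparations (35 ng/μL final) in pH 7.4 Hepes buffer with 1 mM CaCl2 and 5 mM MgCl₂. Incubation lasts 120 min at 25° C, and IC₅₀ comes from one-site fitting.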
With B1 the “Ratio hCT/hAmylin binding” value was 1.2. K([γGlu-γGlu-C20 diacid])CNTATCATQRLADFLRHSSPNFGAIPSSTNVGPRTY-NH2 (disulfide 2-7, also called compound 130) was tested, and the “Ratio hCT/hAmylin binding” value was 280. B2 was tested, and the “Ratio hCT/hAmylin binding” value was 53.6. With B3 the “Ratio hCT/hAmylin binding” value was 14.7. With B4 the “Ratio hCT/hAmylin binding” value was 29.1. With B5 the “Ratio hCT/hAmylin binding” value was 48.6. K([γGlu-γGlu-C20 diacid])CNTATCATQRLADFLRHSSPNFGAIPSSTNVGPETY-NH2 (disulfide 2-7) was tested, and the “Ratio hCT/hAmylin binding” value was 49.8.
